In paper PMC8844856, “Structural basis of cyclic oligoadenylate binding to the transcription factor Csa3 outlines cross talk between type III and type I CRISPR systems” (The Journal of Biological Chemistry, 2022):

What was measured:
Details in all cases: protein: recombinant; tags: N-terminal His6; chain copies: 2; cyclic; no ends
Csa3Sso E122A = biological target: T1, Csa3Sso E122A (Saccharolobus solfataricus P2, UniProt Q97Y88 1-237, E122A); test: MST; MST buffer not given in the material; Cy5 EMSA: 50 nM probe, 0.5-25 uM protein, 5% acrylamide TBE, 4 C; agarose EMSA: 2% TBE, room temperature; crystals: 20 mM
T1 sequence: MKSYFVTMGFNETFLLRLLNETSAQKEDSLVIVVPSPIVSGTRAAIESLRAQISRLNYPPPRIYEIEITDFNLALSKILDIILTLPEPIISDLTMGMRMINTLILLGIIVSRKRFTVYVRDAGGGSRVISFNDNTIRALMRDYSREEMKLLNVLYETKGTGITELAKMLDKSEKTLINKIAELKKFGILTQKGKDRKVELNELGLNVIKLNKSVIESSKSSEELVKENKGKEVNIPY

Csa3Sso E122Q = biological target: T2, Csa3Sso E122Q (Saccharolobus solfataricus P2, UniProt Q97Y88 1-237, E122Q); test: as above
T2 sequence: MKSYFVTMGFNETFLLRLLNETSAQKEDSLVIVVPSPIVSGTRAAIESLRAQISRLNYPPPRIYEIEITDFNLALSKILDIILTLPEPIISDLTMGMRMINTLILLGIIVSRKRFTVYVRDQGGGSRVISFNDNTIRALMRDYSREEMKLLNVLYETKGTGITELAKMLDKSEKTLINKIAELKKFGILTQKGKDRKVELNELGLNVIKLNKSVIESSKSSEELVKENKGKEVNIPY

Csa3Sso R98A = biological target: T3, Csa3Sso R98A (Saccharolobus solfataricus P2, UniProt Q97Y88 1-237, R98A); test: MST; nonspecific signal at high cA4 only; MST buffer not given in the material; Cy5 EMSA: 50 nM probe, 0.5-25 uM protein, 5% acrylamide TBE, 4 C; agarose EMSA: 2% TBE, room temperature; crystals: 20 mM
T3 sequence: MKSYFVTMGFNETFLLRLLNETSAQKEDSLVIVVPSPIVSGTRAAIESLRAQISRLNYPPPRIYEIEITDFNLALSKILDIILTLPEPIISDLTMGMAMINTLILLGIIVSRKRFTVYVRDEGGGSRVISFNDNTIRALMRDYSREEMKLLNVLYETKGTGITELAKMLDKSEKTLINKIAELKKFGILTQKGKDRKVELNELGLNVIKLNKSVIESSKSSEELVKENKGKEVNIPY

Csa3Sso F10A = biological target: T4, Csa3Sso F10A (Saccharolobus solfataricus P2, UniProt Q97Y88 1-237, F10A); test: as above
T4 sequence: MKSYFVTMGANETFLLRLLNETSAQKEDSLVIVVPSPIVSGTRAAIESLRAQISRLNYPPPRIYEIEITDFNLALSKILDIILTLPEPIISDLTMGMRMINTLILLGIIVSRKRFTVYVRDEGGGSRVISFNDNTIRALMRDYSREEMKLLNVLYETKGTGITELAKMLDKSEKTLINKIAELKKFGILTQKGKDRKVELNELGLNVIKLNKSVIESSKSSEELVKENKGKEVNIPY

Csa3Sso F14A = biological target: T5, Csa3Sso F14A (Saccharolobus solfataricus P2, UniProt Q97Y88 1-237, F14A); test: as above
T5 sequence: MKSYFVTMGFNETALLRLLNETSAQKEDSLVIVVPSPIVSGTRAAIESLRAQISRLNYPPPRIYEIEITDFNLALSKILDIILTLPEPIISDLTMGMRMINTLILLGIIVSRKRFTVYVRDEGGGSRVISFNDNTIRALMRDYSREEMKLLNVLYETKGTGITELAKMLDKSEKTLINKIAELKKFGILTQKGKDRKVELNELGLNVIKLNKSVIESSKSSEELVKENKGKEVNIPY

Csa3Sso G96A = biological target: T6, Csa3Sso G96A (Saccharolobus solfataricus P2, UniProt Q97Y88 1-237, G96A); test: as above
T6 sequence: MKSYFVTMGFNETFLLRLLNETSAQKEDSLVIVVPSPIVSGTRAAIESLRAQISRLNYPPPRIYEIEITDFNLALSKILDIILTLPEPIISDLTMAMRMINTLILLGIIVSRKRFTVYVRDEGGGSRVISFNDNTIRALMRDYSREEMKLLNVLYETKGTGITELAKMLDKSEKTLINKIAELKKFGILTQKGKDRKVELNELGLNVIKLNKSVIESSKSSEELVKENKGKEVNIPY

Question: Which Kd (Csa3Sso E122A) does the source give for AAAA (ssRNA, cyclic, 3'-5' linked tetra-adenylate (CHEBI:142457)) [cA4] here?
Answer: 38.3 nM

Question: What about the Kd (Csa3Sso E122Q) of the same binder?
Answer: 44.5 nM

Question: Does AAAA (ssRNA, cyclic, 3'-5' linked tetra-adenylate (CHEBI:142457)) [cA4] bind (Csa3Sso R98A)?
Answer: no binding

Question: Does AAAA (ssRNA, cyclic, 3'-5' linked tetra-adenylate (CHEBI:142457)) [cA4] bind (Csa3Sso F10A)?
Answer: no binding

Question: Does AAAA (ssRNA, cyclic, 3'-5' linked tetra-adenylate (CHEBI:142457)) [cA4] bind (Csa3Sso F14A)?
Answer: no binding

Question: Does AAAA (ssRNA, cyclic, 3'-5' linked tetra-adenylate (CHEBI:142457)) [cA4] bind (Csa3Sso G96A)?
Answer: no binding
